The nature of the series: protein stability index of a GFP-peptide fusion (GPS, HEK-293T) (PSI 1-6); higher = more stable. To be noted: c terminus: a fixed tail appended.

± gives the standard deviation.
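Further: 24-mer peptide tiles fused after GFP, lentivirally expressed, FACS-sorted into six equal bins by GFP/DsRed ratio, decoded by Illumina sequencing, PSI is the read-weighted mean bin number.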

Take SEADASHCIQQILEAVLHCHQMGV [CAMK2B]: the protein stability index came to 2.48 ± 0.14 (treatment: DMSO) and 2.67 ± 0.59 (treatment: MLN4924 1 uM, 8 h).

In the case of LCLLVAWSIVGMAVVKGIQSSGKV [SLC6A17], the protein stability index is, setting by setting: (treatment: DMSO) 2.76 ± 0.49; (treatment: MLN4924 1 uM, 8 h) 2.84 ± 0.21.

As for MAPLQPSTSRAHKLPSRRQPGLLH [FAM189A2], the protein stability index amounted to 3.62 ± 0.18 (treatment: DMSO) and 3.72 ± 0.28 (treatment: MLN4924 1 uM, 8 h).

In the case of QRSPLGGDVLHAHLDIWKSAAWMK [SPDEF], the protein stability index runs as follows: (treatment: DMSO) 2.61 ± 0.37; (treatment: MLN4924 1 uM, 8 h) 2.58 ± 0.45.

On to LSPDIMKDAYVQKLVKVCNGHDCW [TENT5D], for which the protein stability index by setting is: (treatment: DMSO) 2.41 ± 0.72; (treatment: MLN4924 1 uM, 8 h) 2.35 ± 0.17.

As to WSLYPSDSQVSEEVKTRHSEKSQR [CHGB], the protein stability index turned out to be 4.78 ± 0.17 (treatment: DMSO) and 4.8 ± 0.19 (treatment: MLN4924 1 uM, 8 h).

Take NSTGSGRGKKLMVLTEPILIETYT [TPRG1]: the protein stability index (treatment: DMSO) came out at 2.57 ± 0.18 and the protein stability index (treatment: MLN4924 1 uM, 8 h) was determined as 2.75 ± 0.24.

On to GLSIPSHSSELTEQKLRACLEGSI [RPAIN], for which the protein stability index runs as follows: (treatment: DMSO) 3.63 ± 0.39; (treatment: MLN4924 1 uM, 8 h) 3.53 ± 0.24.

Consider PNTAVSVHVSESSDDDEEEEENIG [ACBD3], for which the protein stability index came out at 5.5 ± 0.3 (treatment: DMSO) and 5.63 ± 0.12 (treatment: MLN4924 1 uM, 8 h).

Take ILEVLRSSPMVQVDEKGEKVRPSH [LARP4]: the protein stability index reads like this: (treatment: DMSO) 3.61 ± 0.27; (treatment: MLN4924 1 uM, 8 h) 3.71 ± 0.12.

As to KDRASPADLRTNHTLNNLVEKLLR [TRIM35], the protein stability index reads like this: (treatment: DMSO) 2.44 ± 0.27; (treatment: MLN4924 1 uM, 8 h) 2.48 ± 0.13.

NTKRAIHTLAVMNDRLYAIGGNHL [KLHL14]: the protein stability index was determined as 2.2 ± 0.19 (treatment: DMSO) and 2.3 ± 0.14 (treatment: MLN4924 1 uM, 8 h).

As for AEEESSGGEEEDEDENIEVVYSKA [EIF5], the protein stability index worked out at 5.22 ± 0.17 (treatment: DMSO) and 5.25 ± 0.16 (treatment: MLN4924 1 uM, 8 h).

On to VDCACLKENPECPVLKRSSESMEN [KMT2E], for which the protein stability index was determined as 4.96 ± 0.37 (treatment: DMSO) and 4.98 ± 0.19 (treatment: MLN4924 1 uM, 8 h).

Take LQGDLKTLMGKLKLKNTVTIQQEK [SASS6]: under “treatment: MLN4924 1 uM, 8 h”, the protein stability index was 2.81 ± 0.25.

In the case of RLQHICELFIITQLQSMPSRELAS [RHOBTB3], the protein stability index runs as follows: (treatment: DMSO) 3.19 ± 0.5; (treatment: MLN4924 1 uM, 8 h) 3.33 ± 0.63.

As to EGVSLTAVLTTHHHWDHARGNPEL [HAGHL], the protein stability index is, setting by setting: (treatment: DMSO) 2.72 ± 0.27; (treatment: MLN4924 1 uM, 8 h) 2.87 ± 0.42.

Take EWFQNCYARYHQAFADRDQSERQR [TEKT4]: the protein stability index turned out to be 3.41 ± 0.24 (treatment: DMSO) and 3.21 ± 0.21 (treatment: MLN4924 1 uM, 8 h).

On to TAVAQAPPAVASSSLFDLSVLKLH [SERTAD1], for which the protein stability index stood at 3.17 ± 0.061 (treatment: DMSO) and 3.24 ± 0.2 (treatment: MLN4924 1 uM, 8 h).

On to RNWALKESFIKAIGVGLGFELQRL [AASDHPPT], for which the protein stability index came to 3 ± 0.54 (treatment: DMSO) and 2.63 ± 0.52 (treatment: MLN4924 1 uM, 8 h).

Turning to MPLKWKTSSPAIWKFPVPVLKTSR [KLHL13], the protein stability index runs as follows: (treatment: DMSO) 2.46 ± 0.052; (treatment: MLN4924 1 uM, 8 h) 2.47 ± 0.44.

YVERKNSLKKGSLVKNLKDTLGLG [NCK2]: the protein stability index (treatment: DMSO) worked out at 2.85 ± 0.34 and the protein stability index (treatment: MLN4924 1 uM, 8 h) was found to be 3.13 ± 0.28.

On to GRDALLDQIRQGIQLKSVADGQES [WASL], for which the protein stability index by setting is: (treatment: DMSO) 5.43 ± 0.36; (treatment: MLN4924 1 uM, 8 h) 5.22 ± 0.63.

Regarding FYQLVWSALPFITYLENKGHRYPC [POP5], the protein stability index reads like this: (treatment: DMSO) 2.88 ± 0.69; (treatment: MLN4924 1 uM, 8 h) 3.09 ± 0.53.

For the sequence EPGRLYLDLILAILALELICSLIC [TMEM192], the protein stability index reads like this: (treatment: DMSO) 2.35 ± 0.49; (treatment: MLN4924 1 uM, 8 h) 2.21 ± 0.34.

Regarding HPDPAPFCADNPSELPPPMERTGG [DVL3], the protein stability index reads like this: (treatment: DMSO) 3.41 ± 0.55; (treatment: MLN4924 1 uM, 8 h) 4.17 ± 0.49.

For AVAHKTPRCPGSVNEKLPQREGTG [SMOC2], the protein stability index is 5.13 ± 0.47 (treatment: DMSO) and 5.33 ± 0.12 (treatment: MLN4924 1 uM, 8 h).

LLDLDPEVECLKANTNEVLWAVVA [GOLPH3] registered a protein stability index (treatment: DMSO) of 1.94 ± 0.21 and a protein stability index (treatment: MLN4924 1 uM, 8 h) of 2.22 ± 0.41.

As to ALGGLQSWRVGVVRVRQDSGAEGH [TRIM35], the protein stability index runs as follows: (treatment: DMSO) 2.95 ± 0.46; (treatment: MLN4924 1 uM, 8 h) 3.31 ± 0.38.

On to ILTLPEMMRMFSENLAHHLEIDSG [TRIM15], for which the protein stability index runs as follows: (treatment: DMSO) 2.44 ± 0.3; (treatment: MLN4924 1 uM, 8 h) 2.44 ± 0.31.

As to PLGLEVDQFLEDVRLQERTSGGLL [NOP53], the protein stability index turned out to be 4.42 ± 0.14 (treatment: DMSO) and 4.47 ± 0.12 (treatment: MLN4924 1 uM, 8 h).

Take GQPSEPEHGPSPGQDTFCQGKADG [CHIT1]: the protein stability index is, setting by setting: (treatment: DMSO) 5.45 ± 0.32; (treatment: MLN4924 1 uM, 8 h) 5.63 ± 0.23.

For the sequence CSDSDKKCHLWTAMDLGFFVVMGV [CLCN6], the protein stability index was 2.95 ± 0.63 (treatment: DMSO) and 2.97 ± 0.5 (treatment: MLN4924 1 uM, 8 h).

On to FRRAPSWRKRFRPREHHGRGGMLS [PPFIA4], for which the protein stability index reads like this: (treatment: DMSO) 3.11 ± 0.27; (treatment: MLN4924 1 uM, 8 h) 3.99 ± 0.078.

For the sequence RNVLELNDVRQSANYTCVAMSTLG [PTPRD], the protein stability index is, setting by setting: (treatment: DMSO) 2.85 ± 0.28; (treatment: MLN4924 1 uM, 8 h) 2.74 ± 0.17.

In the case of DCLAAWEEWLLVGTKQGHLLLYRI [VPS39], the protein stability index (treatment: DMSO) is 2.92 ± 1.1 and the protein stability index (treatment: MLN4924 1 uM, 8 h) stood at 2.51 ± 0.32.

As for SGTVAAVLTLPFDVVKTQRQVALG [SLC25A39], the protein stability index is, setting by setting: (treatment: DMSO) 2.15 ± 0.32; (treatment: MLN4924 1 uM, 8 h) 2.27 ± 0.3.

For the origin of these results see the supplement of paper PMC10567573.
